Test results published in the RNAGym collection of RNA variant scans (doi:10.7554/elife.80360).

B1: HDV Ribozyme (parent)
chain: GGCCGGCAUGGUCCCAGCCUCCUCGCUGGCGCCGGCUGGGCAACAUUCCGAGGGGACCGUCCCCUCGGUAAUGGCGAAUGGGACCCA

Variants of: B1
Test: self-cleavage, relative activity (ratio to wild type); higher = more cleavage; co-transcriptional

Row | Variant | self-cleavage
1 | GGCCGGCAUGGUCCCAGCCUCCUCGCUGGCGCCGGCUGGGCAACAUUCCGAGGGCACCGUCUCCUCGGUAAUGGCGAAUGGGACCCA [G55C C62U] | 0.946
2 | GGCCGGCAUGGUCCCAGCCUCCUGGCUGGCCCCGGCUGGGCAACAUUCCGAGGGGACCGUCCCCUCGGUAAUGGCGAAUGGGACCCA [C24G G31C] | 0.0563
3 | GGGCGGCAUGGUCCCAGCCUCCUCGCUGGCUCCGGCUGGGCAACAUUCCGAGGGGACCGUCCCCUCGGUAAUGGCGAAUGGGACCCA [C3G G31U] | 0.0739
4 | GGCCGGCAUGGUCCCAGCCUCCUGGCUGGCGCCGGCUGGGCAACAUUCCGAGAGGACCGUCCCCUCGGUAAUGGCGAAUGGGACCCA [C24G G53A] | 0.18
5 | GGCCGUCAUGGUCCCAGCCUCCUCGCUGGCGCCGGCUGGGCAACAUUCCGACGGGACCGUCCCCUCGGUAAUGGCGAAUGGGACCCA [G6U G52C] | 0.554
6 | GGCCGGCAUGGUCCCUGCCUCCUCGCUGGCCCCGGCUGGGCAACAUUCCGAGGGGACCGUCCCCUCGGUAAUGGCGAAUGGGACCCA [A16U G31C] | 0.0437
7 | GGCCGGCAUGGUCCCAGCCUCCUCGCUGGCGCCGGCUAGGCAACAUUCCGAAGGGACCGUCCCCUCGGUAAUGGCGAAUGGGACCCA [G38A G52A] | 0.173
8 | GGCCGGCAUGGUCCCAACCUCCUCGCUGGCGCCGGGUGGGCAACAUUCCGAGGGGACCGUCCCCUCGGUAAUGGCGAAUGGGACCCA [G17A C36G] | 0.0475
9 | GGCCGGCAUGGUCCCAGCCUCCUCGCUGGCGCCGGCUGGGCAACAUUCCGAGGGGACCGUCCCCUCGGUAAUGGCGAAUGAGACCAA [G81A C86A] | 0.805
10 | GGCCGGCAUGGUCCCAGCCUCCUCGCUGGCGCCGGCUGGGCAACAUUCCGAAGGGACCGUCCCCUCGGUAAUGGCGAAUGUGACCCA [G52A G81U] | 0.244
11 | GGCCGGCAUGGUCCCAGCCUCCUCGCUGGCGCCGGCUGCGCAACAUUCCGAGGGGAUCGUCCCCUCGGUAAUGGCGAAUGGGACCCA [G39C C57U] | 0.345
12 | GGCCGGCAUGGUCCCAGCCUCCUCGCAGGCGCCGGCUGGGCAACAUUCCGAGGGGACCGGCCCCUCGGUAAUGGCGAAUGGGACCCA [U27A U60G] | 0.59
13 | GGCCGGCAUGGUCCCAGCCUCCUCGCUGGCGCCGGCUGGGAAACAUUCCGAGGGGAUCGUCCCCUCGGUAAUGGCGAAUGGGACCCA [C41A C57U] | 0.909
14 | GUCCGGCAUGGUCGCAGCCUCCUCGCUGGCGCCGGCUGGGCAACAUUCCGAGGGGACCGUCCCCUCGGUAAUGGCGAAUGGGACCCA [G2U C14G] | 0.0354
15 | GGCCGGCAUGGUCCCAGCCUCCUCGCUGGCGCCGGCUCGGCAACACUCCGAGGGGACCGUCCCCUCGGUAAUGGCGAAUGGGACCCA [G38C U46C] | 0.0923
16 | GGCCGGCAUGGUCCCAGCCUCCUCGCUGGCGCCGGCUGGGCAACAUUCCGAGGGGACCUUCCCCUUGGUAAUGGCGAAUGGGACCCA [G59U C66U] | 0.875
17 | GGCCGGCAUGGUCCCAGCCUCCUCGCUGGCGCCGGCUGGGAAACAUUCCGAGGGGACCGUCCCCUCGGUAAUGGCGAAUGGGAACCA [C41A C84A] | 0.435
18 | GGCCGGCAUGGUCCCCGCCUCCUCGCUGGCGCCGGCUGGGCAACAUUCCGAGGGGACCGUCCCCUCGGUAGUGGCGAAUGGGACCCA [A16C A71G] | 0.7
19 | GGCCGGCAUGGUCCCAGCAUCCUCGCUGGCGCCGGCUGGGCAACAUUCCGAGGGGACCGUCCCCUCGAUAAUGGCGAAUGGGACCCA [C19A G68A] | 0.0631
20 | GGCCGGCAUGGUCCCAGCCUCCUCGCUGGCGCCGGCUGGGCAACAUUCCGAGGGGACCGUCCGCUCGCUAAUGGCGAAUGGGACCCA [C63G G68C] | 0.232
21 | GGCCGGCACGGUCCCAGCCUCCUCGCUGACGCCGGCUGGGCAACAUUCCGAGGGGACCGUCCCCUCGGUAAUGGCGAAUGGGACCCA [U9C G29A] | 0.222
22 | GGCCGGCAAGUUCCCAGCCUCCUCGCUGGCGCCGGCUGGGCAACAUUCCGAGGGGACCGUCCCCUCGGUAAUGGCGAAUGGGACCCA [U9A G11U] | 0.312

Row | Variant | self-cleavage
23 | GGCCGGCAUGGUCCCAGCCUCCUCGCUGGCGCCGGCUGGGCAACUUUCCGAGGGGACCGUCCCCUCGGUAAUGGCGAUUGGGACCCA [A45U A78U] | 0.155
24 | GGCCGGCAUGGUCCCAGCCUCCUCGCUGGCGCCGGCUGGGCAACCUUCCGUGGGGACCGUCCCCUCGGUAAUGGCGAAUGGGACCCA [A45C A51U] | 0.72
25 | GGCCGGCAUGGUCCCAGCCUCCUCGCGGGCGCCGGCUGGGCAACGUUCCGAGGGGACCGUCCCCUCGGUAAUGGCGAAUGGGACCCA [U27G A45G] | 0.712
26 | GGUCGGCAUGGUCCCAGCCUCCUCGCUGGCGCCGGCUGGGCAACAUUCCGAGGGGACCGUCCCCUCGGUAACGGCGAAUGGGACCCA [C3U U72C] | 0.471
27 | GGCCGGCAUGGUCCCAGCCUACUCGCUGGCGCCGGCUGGGCAACAUUCCGAAGGGACCGUCCCCUCGGUAAUGGCGAAUGGGACCCA [C21A G52A] | 0.132
28 | GGCCGGCAUGGUCCCAGCCUCCUCGCUGGCGCCGGCUGGGCAACGUUCCGAGGGGACCGUCCCCUCGGUAAUGCCGAAUGGGACCCA [A45G G74C] | 0.332
29 | GGCCGGCCUGGUCCCAGCCUCCACGCUGGCGCCGGCUGGGCAACAUUCCGAGGGGACCGUCCCCUCGGUAAUGGCGAAUGGGACCCA [A8C U23A] | 0.615
30 | GGCCGGCAUGGUCCCAGCCUCCUCGCUGGCGCCGGCUGGGCAACAUUCCGAGGGGACGAUCCCCUCGGUAAUGGCGAAUGGGACCCA [C58G G59A] | 1.1
31 | GGCCGGCAUGGUCCCUGCCUCCUCGCUGGCGCCGGCUGGGAAACAUUCCGAGGGGACCGUCCCCUCGGUAAUGGCGAAUGGGACCCA [A16U C41A] | 0.87
32 | GGCCGGCCUGGUCCCAGCCUCCUCGCUGGCGCCGGCUGGGCAACAUUCCGAGGGGACCGUCCCCUCGGUAAUGGUGAAUGGGACCCA [A8C C75U] | 0.128
33 | GGCCGGCAUGGUCCCAGCCUCCUCGCUGGCGCCGGCUGGGCAACCUUCCGAGGGGACCGUCCCCUCGGUAAUGGCUAAUGGGACCCA [A45C G76U] | 1.01
34 | GGCCGGCAUGGUCCCAGCCUCCUCGCUGCCGCCGGCUGGGCAACAUUCCGAGGGGACCGUCCCCUCUGUAAUGGCGAAUGGGACCCA [G29C G67U] | 0.0773
35 | GGCCGGCAUGGUCCCAGCCUCCUCGCUGGCGCCGGCUGGGCAACCUUCCGAGGGGACCGUCCCCUCGGUAAUAGCGAAUGGGACCCA [A45C G73A] | 0.528
36 | GGCCGGCAUGGUCCCAGUCUCCUCGCUGGCGCCGGCUGGGCAACAUUCCGAGGGGACCGUCCCCUCUGUAAUGGCGAAUGGGACCCA [C18U G67U] | 0.665
37 | GGCCAGCAUGGUCCCAGCCUCCUCGCUGGCGCCGGCAGGGCAACAUUCCGAGGGGACCGUCCCCUCGGUAAUGGCGAAUGGGACCCA [G5A U37A] | 0
38 | GGCCGGCAUGGUCCCAGCCUCCUCUCUGGCGCCGGCUGGGCAACAUUCCGAGGGGACCGUCCCCUCGGGAAUGGCGAAUGGGACCCA [G25U U69G] | 0.244
39 | GGCCGGCAUGGUCCCAGCCUCCUCGCUGGCGCCAGCUGGGCAACAUUCCGAGGGGACCGUCCCCGCGGUAAUGGCGAAUGGGACCCA [G34A U65G] | 0.178
40 | GGCCGGCAUGGUCCCAGCCUCCUCGCUGGCGCCGGUUGGGCAACAUUCCGAUGGGACCGUCCCCUCGGUAAUGGCGAAUGGGACCCA [C36U G52U] | 0.72
41 | GGCCGGCAUGGUCCCAGCCUCCUCGCUGCCGCCGGCUGGGCAACAUUCCGAGGGGACCGUCCCCUCGGCAAUGGCGAAUGGGACCCA [G29C U69C] | 0
42 | GGCCGGCAUCGUCCCAGCCUCCUCGCUGGCGCCGGCUGGGCAACAUUCCGAGGGGACCGUCCCCUCGGUAAUAGCGAAUGGGACCCA [G10C G73A] | 0.396
43 | GGCCGGCAUGGUCCCAGCCUCCUCGCUGGAGCCGGCUGGGCAACAUUCCGAGGGGACCGUCCCCUCGGUAAUGGCGAAUGGGAGCCA [C30A C84G] | 0
44 | GGCCGGCAUGGUCCCAGCCUCCUCGCUGGCGCCGGCUGGGCAACAUUCCGAGGGGACCGUCCCCUCGGUACUGGCGUAUGGGACCCA [A71C A77U] | 0.322

Row | Variant | self-cleavage
45 | GGCCGGCAUGGUCCCAGCCGCCUCGCUGGCGCCGUCUGGGCAACAUUCCGAGGGGACCGUCCCCUCGGUAAUGGCGAAUGGGACCCA [U20G G35U] | 0
46 | GGCCGGCAUGGUCCCAGCCUCCUCGCUGGCGCCGGCUGGGCAGCAUUCCCAGGGGACCGUCCCCUCGGUAAUGGCGAAUGGGACCCA [A43G G50C] | 0.739
47 | GGCCGGCAUGGUCCCAGCCUCCACGCUGGCGCCGGCUGGGCAACAUUCCGAGGGGACCGUCUCCUCGGUAAUGGCGAAUGGGACCCA [U23A C62U] | 0.966
48 | GGCCGGCAUGGUCCCAGCCUCCUCGAUGGCGCCGUCUGGGCAACAUUCCGAGGGGACCGUCCCCUCGGUAAUGGCGAAUGGGACCCA [C26A G35U] | 0.619
49 | GGCCGGCAUGGUCCCAGCCUCCUCCCUGGCGCCGGCUGGGCAACAUUCCGAGGGGACCGUCCCCUCGGUAAUGGCGAAUGGGACCCC [G25C A87C] | 0.07
50 | GGCCGGCAUGGUCCCAGGCUCCUCGCUGGCGCGGGCUGGGCAACAUUCCGAGGGGACCGUCCCCUCGGUAAUGGCGAAUGGGACCCA [C18G C33G] | 0.119
51 | GGCCGGCAUGGUUCCAGCCUCCUCGCUGGCGCCGGCUGGGCAACAUUCCGAGGGGACCGUCCCCUCGGUAAUGGCGAAUGGGACCUA [C13U C86U] | 1.1
52 | GGCCGGCAUGGUCCCAGCCUCCUCGCUGGCGCCGGCUGGGCAACAGUCCGAGGGGACCGUCCCCUCGGUAAUGGCGAAUGGAACCCA [U46G G82A] | 0.161
53 | GGCCGGCAUGGUCCCAGCCUCCUCCCUGGCGCCGGCUGGGCAACAUUCCGAGGGGACCGUCCCCUCGGCAAUGGCGAAUGGGACCCA [G25C U69C] | 0.175
54 | GGCCGGCAUUGUCCCAGCCUCCUCGCUGGCGCCGGCUGGGCAACAUUCCGAGGGGACCGUCCCCUCGAUAAUGGCGAAUGGGACCCA [G10U G68A] | 0.584
55 | GGCCGGCAUGGUCCCAGCCUCCUCACUGGCGCCGGCUGGGCAACAUUCCGACGGGACCGUCCCCUCGGUAAUGGCGAAUGGGACCCA [G25A G52C] | 0.174
56 | GGCCGGCAUCGUCCCAGCCUCCUCGCUGGCGCCGUCUGGGCAACAUUCCGAGGGGACCGUCCCCUCGGUAAUGGCGAAUGGGACCCA [G10C G35U] | 0.374
57 | GGCCGGCAUGGUCCCAGCCUCCUCGCUGGCGCCGGCUGGGCAACAUUCCGAGGGGACCGUCCCCUCGGUAAUGGUGAAUGGGACCUA [C75U C86U] | 0.0563
58 | GGCCGGCAUGGUCACAGCCUCCUCGCAGGCGCCGGCUGGGCAACAUUCCGAGGGGACCGUCCCCUCGGUAAUGGCGAAUGGGACCCA [C14A U27A] | 0.739
59 | GGCCUGCAUGGUCCCAGCCUCCUCGCUGGCGCCGGCAGGGCAACAUUCCGAGGGGACCGUCCCCUCGGUAAUGGCGAAUGGGACCCA [G5U U37A] | 0.0723
60 | GGCCGGCAUGGUCCCAGCCUCCUCGUUGGCGCCGGCUGGGCAACAUUCCGAGGGGACCGUCCCCUCCGUAAUGGCGAAUGGGACCCA [C26U G67C] | 1.12
61 | GGUCGGCAUGGUCCCAGCCUCCUCGCUGGCGCCGGCUGGGCAACAUUCCGAGGGGACCGUCCCCUCGGUAAUGGCGAAUGGUACCCA [C3U G82U] | 0.332
62 | GGCCGGCAUGGUCCCAGCCUCCUCGCUGGCGCCCGCUGGGCAACAUUCCGAGGGGACCGUCCCCUCGGUAAUGGCAAAUGGGACCCA [G34C G76A] | 0.163
63 | GGCCGGCAUGGUCCCAGCCUCCUCGCUGGCGCCGGCUGGGCAAUAUUCCGAGGGGAACGUCCCCUCGGUAAUGGCGAAUGGGACCCA [C44U C57A] | 0.672
64 | GGCCGGCAUGGUCCAAGCCUCCUCGCUGGCGCCGGCUGGGCAACAUUCCGAGGGGACCGUCCCCUCGGUAAUGGCGAAUGAGACCCA [C15A G81A] | 0.57
